The values that follow come from PMC3868510.

In experiment [1] the target is soluble truncated αvβ8 integrin conjugated to alkaline phosphatase (UniProt P06756). Briefly: SPR; Biacore 2000, CM-5 chip; MAb LS-C44264 to placental alkaline phosphatase immobilised by amine coupling and used to capture the soluble integrin-AP; gH/gL injected at 50 µl/min; 25°C; 10 mM HEPES-NaOH pH 7.4, 150 mM NaCl, 0.005% P20; kobs against gH/gL concentration, 1:1 Langmuir. Background: SPR reads the build-up and loss of mass on a sensor chip optically.

Experiment [2] has as its target soluble truncated αvβ6 integrin conjugated to alkaline phosphatase (UniProt P06756). Described as above.

Sequence of soluble truncated αvβ8 integrin conjugated to alkaline phosphatase (P06756 31-1048, chain 1 of 2): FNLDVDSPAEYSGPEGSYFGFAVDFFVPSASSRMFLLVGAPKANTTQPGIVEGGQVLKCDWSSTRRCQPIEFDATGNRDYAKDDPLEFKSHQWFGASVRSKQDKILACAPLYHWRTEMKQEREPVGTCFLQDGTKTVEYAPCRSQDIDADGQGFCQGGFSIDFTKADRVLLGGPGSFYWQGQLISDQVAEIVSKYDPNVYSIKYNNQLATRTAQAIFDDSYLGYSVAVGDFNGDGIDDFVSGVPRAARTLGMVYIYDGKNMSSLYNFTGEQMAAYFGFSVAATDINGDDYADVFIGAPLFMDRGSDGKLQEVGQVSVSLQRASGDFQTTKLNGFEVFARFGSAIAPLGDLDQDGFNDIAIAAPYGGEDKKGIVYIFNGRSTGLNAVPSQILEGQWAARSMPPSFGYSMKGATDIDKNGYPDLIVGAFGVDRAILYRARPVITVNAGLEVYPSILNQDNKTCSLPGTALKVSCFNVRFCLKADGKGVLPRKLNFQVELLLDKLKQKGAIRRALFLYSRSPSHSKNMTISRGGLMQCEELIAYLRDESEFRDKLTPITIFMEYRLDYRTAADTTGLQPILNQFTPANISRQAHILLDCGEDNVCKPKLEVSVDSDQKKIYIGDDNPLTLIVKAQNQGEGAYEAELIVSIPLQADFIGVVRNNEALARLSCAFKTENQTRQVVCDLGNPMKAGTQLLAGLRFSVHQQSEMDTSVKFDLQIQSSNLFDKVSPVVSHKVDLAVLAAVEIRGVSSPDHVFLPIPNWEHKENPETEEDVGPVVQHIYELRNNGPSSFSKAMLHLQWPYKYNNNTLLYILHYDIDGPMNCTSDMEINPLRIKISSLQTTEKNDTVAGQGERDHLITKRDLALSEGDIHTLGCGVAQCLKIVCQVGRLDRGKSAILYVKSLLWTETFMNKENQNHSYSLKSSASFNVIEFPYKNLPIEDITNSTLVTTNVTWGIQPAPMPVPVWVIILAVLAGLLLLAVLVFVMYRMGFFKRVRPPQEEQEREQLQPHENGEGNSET
Sequence of soluble truncated αvβ8 integrin conjugated to alkaline phosphatase (P26012 43-684, chain 2 of 2, further chain): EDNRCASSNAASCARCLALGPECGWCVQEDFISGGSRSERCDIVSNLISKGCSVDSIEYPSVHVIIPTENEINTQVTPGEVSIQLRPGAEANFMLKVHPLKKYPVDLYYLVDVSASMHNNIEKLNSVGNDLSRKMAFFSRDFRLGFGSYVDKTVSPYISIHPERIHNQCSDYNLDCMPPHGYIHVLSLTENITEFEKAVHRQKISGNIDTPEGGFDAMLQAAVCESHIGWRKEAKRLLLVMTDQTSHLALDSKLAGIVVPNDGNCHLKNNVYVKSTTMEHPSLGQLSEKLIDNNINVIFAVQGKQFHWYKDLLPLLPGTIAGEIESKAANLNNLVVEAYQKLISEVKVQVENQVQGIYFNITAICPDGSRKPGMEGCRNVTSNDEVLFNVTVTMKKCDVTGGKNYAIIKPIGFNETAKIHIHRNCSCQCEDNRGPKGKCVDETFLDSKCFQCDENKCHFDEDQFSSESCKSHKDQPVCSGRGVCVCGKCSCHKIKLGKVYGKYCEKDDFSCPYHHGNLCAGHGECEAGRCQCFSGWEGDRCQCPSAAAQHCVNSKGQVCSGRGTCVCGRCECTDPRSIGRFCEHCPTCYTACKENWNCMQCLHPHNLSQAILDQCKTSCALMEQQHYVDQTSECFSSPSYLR
Sequence of soluble truncated αvβ6 integrin conjugated to alkaline phosphatase (P06756 31-1048, chain 1 of 2): as the sequence (P06756 31-1048, chain 1 of 2) above
Sequence of soluble truncated αvβ6 integrin conjugated to alkaline phosphatase (P18564 22-709, chain 2 of 2, further chain): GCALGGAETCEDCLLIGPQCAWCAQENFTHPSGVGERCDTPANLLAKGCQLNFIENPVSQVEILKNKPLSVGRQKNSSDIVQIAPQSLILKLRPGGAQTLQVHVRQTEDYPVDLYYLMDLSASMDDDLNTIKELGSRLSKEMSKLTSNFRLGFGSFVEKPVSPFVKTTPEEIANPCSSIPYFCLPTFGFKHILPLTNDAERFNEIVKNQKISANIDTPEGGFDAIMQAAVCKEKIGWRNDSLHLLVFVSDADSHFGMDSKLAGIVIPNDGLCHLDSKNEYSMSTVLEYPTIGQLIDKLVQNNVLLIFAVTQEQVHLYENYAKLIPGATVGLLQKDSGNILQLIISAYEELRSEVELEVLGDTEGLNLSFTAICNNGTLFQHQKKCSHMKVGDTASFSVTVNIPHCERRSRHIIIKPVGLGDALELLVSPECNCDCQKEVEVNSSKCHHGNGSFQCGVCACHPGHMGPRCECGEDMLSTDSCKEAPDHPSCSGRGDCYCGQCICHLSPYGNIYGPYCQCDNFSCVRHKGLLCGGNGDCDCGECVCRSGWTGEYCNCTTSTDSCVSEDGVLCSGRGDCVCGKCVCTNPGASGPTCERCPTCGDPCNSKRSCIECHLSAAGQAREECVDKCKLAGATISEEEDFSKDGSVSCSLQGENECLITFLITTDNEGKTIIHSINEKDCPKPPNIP

As for “soluble form of HSV gH/gL (gHt/gL) (from UniProt P06477 19-838; P10185 20-224) (complex)”, in experiment [1], the dissociation constant (Kd) was 27 nM, the koff is 0.005 s⁻¹ and the kon worked out at 207000 M⁻¹ s⁻¹. In experiment [2], this substance registered a Kd of 12 nM, a dissociation rate constant (koff) of 0.0018 s⁻¹ and an on-rate constant (kon) of 152000 M⁻¹ s⁻¹.

For orientation: Kd means the free concentration of one partner at which half of the binding sites on the other are occupied at equilibrium, for simple one-to-one binding. Read a high Kd as lower affinity. In general, koff refers to a measure of how fast the partners let go of each other. A word on the kon: it is the rate constant with which the complex forms. A high value points to fast association.
